Experiment: soluble fraction after stress (log2 fold change); higher = more stays soluble; pooled small domains, quantitative proteomics
Conditions: stress: 50 degC
Procedure, shortened: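 After stress at 50°C, the amount of each protein still soluble was measured. This was done on pooled custom libraries of small protein domains, using high-throughput quantitative proteomics. The figure given is a base-two log fold change and stands for aggregation propensity, with higher values meaning more protein stays in solution.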

Sequence | soluble fraction (log2)
HMANADVVLVDLDKEYTVDAAKFHSVVKHSPFNGFAVKGAPVLTIVRGTVVAENGEVVGQPGHSKMVRP | -0.0579
HMDDIVFPNPTKNQINVSIDGLKNIYNLSGKLLISTNDKIIDVSILKAGVYFINTNEQFYKFVK | -1.3
HMEEEPALLRDLLAKTLEFGLIPQLSHHPALADRTQQLASAVRAAGSASALRNAAASLKSLWIDVDQ | -0.0318
HMKGKWKPIILWQLSKAPQSLSGLRHSIAGISQKMLIQHLNELIHFGFVVRTTFEGYPLKVEYDLTDRGR | -0.231
HMSLTPSQDANRSAILDAARDLFARYGFKKTTMEDIAMALRKGKSSLYYYFKNKEDIFQAVIDS | -1.35
HMEVSLEDKMDYLTNYATTHKNFSFRNLLESSSGKIEVIVTFLAILELMKMGRINISQEHIFDDIIIESRI | -2.53
HMSKKMLASIFDTISGIGKKRLKKIWDNYTSLNELKDDSLENIYAKTQIPINLITKIKEKLE | -0.37
HMWWTPIILRDALFGVQRFEDFQKNLDVSRATLSSRLTRLVDEGLMEKVEYQQHPVRHEYVLTEKGR | -0.108
HMENWMPNLVNQDKRLAINTLRELGFTEEAGNLVIREETSEDVTKDYVISTDPVAETDLADVEKVTLVVSS | 0.0767
HMRVKLVKKSILASGGENIRVDKFLSNHILTMTRTQIKKLFLDGLVQVNKSFVKPGSILKGNEIITFSIPE | -1.8
HMVARPVLQIGSTGADVTAIQARLGVSQTGYFGVLTAAAVTNFQRSNGIAASGKVGATTWAKLMQSA | -1.14
HMSTILERLIMLQEQSGMNQKQLQKELGLSNSAFSDWKKGKGRPSVEALVRFSEFFGVSMDWLAFG | -2.09
HMPVEFVKISIKPGHPWENQFVRDIVSLPDLLMVLILRGEERIIPNGNTKILVGDKIVLSALSPG | -0.779
HMNQEIELLLREPDFTSAARLAMAINERFTNSARAIDPTSVKVRMPEGLDQASVDFVARLEDIEMSPDT | -0.0281
HMDAISYTQFMEEAKQGRINKVEVQGRTLMVTPTDGKAYSLTSPGDLWMTTDLMKYGVNVYGAE | -0.00324
HMNEYIVSAEQEGMRLDVFLTEQMEGSRSYIQSLIKGGHVTVGDKVGKANLRLTPDTVIHVEIPEPE | 0.0524
HMRAAKSEDTRTRLIEGGMALFGQKGYNATGIKDITDAAGVPKGSFYNYFASKEDFGAEIIHSY | 0.122
HMQFQVHEIKGKEYYIHVVEKGNTLYAISRMYSVPIETLKEENPRLNTTELTIGDRLLIPLDEVKRKNIE | -0.128
HMARYSMLEEQLLQLINKHGTMSTPKLVEATGAPRSTVTYQLRKLLESGTIERTQPARSPKQSYRIKS | -0.238
HMKEQLITVYVSGAVARPGLYELPAGIRAQEAVEAAGGFTEAANHEKVNLAKKLKDGSQVNVPALK | -0.0032
HMQRRHESTPIPADFDYAAVRGLSAEVQQKLERVRPLSIGQAQRIPGMTPAAISLLLVHLERQRRSRV | -0.152
HMKIHNSIREITDFDRKQNSNIPSDAKYRIVFYTPQGNKTIIPEELQGLQYYRSKELAEIALNKKLNSN | -0.132
HMDTIYPFNPNFIDDYKGYVLGLNTNEIDRLLKYRSKGNWINSAEDFKKVTGIDDALLNKLSKSFKFPDWL | -1.44
HMKKPANLISEDRMVEVLYDVIIINTAKGVNKQLLQNNINNPLNYIYRSHGIDSLQFAESNAYYTS | -0.371
HMDRDMGSMTDFENVRDAYLTGKVWNVGDLIEANGITGIIIRKGTNYVSYNDGDGKVHKAWLHDITL | -0.886
HMDDFVEIDGKKYEIDMSFDNILRLFDLLKDKSLNDVTKIETGLIMLIDDSLDDYDTEEKADIFVQIF | -0.0316

Sequence | soluble fraction (log2)
HMQISLDTKLINLEFSVRANNVFRENQIFTLRDLTSHSKEDLMLMTNFGKTTLYEVNKKLEEHQLKLSQ | -2.69
HMARTGSEELVGALATVREPLAPWGQVFVQGALWRARSADGGPVDAGQQVVVRAVEGLTLVVEPRD | 0.00428
HMEQAAQPQTGFDPRRLKAGDAVHLLALDQRGVLLEDPKPGAESAPVSVGVAGVRVVVPLREMEALPAG | 0.157
HMFTNSTSSRQLTNSDDTLRLNISSQTRQMLPNGQPFGGSLSGKLLLVIYGATTRSIPAQTTPEKIVV | -0.134
HMAPSLSEYAYEEIKHAIERGVYPPGAKLITQEIADRLGISRTPVVAAVNRLTAEGYADAVPQHGIFVK | 0.0573
HMEEYLENLTQSKLLHMLDQLSPAYKTVFTLFVLDELSHEEISKMLNISIGTSKSNLFRARKVMRVLMESE | -0.397
HMNNESEGAIMLRQYSSLSAYLTKYNIDVNSKKAQQYASSLKLAQEKGSAEGQKYLSSISSELDD | -0.158
HMHDLDALTGLSGEARSKVYEEGSVFVAGEMWSAKSDAVIPAGSSIRVVRREGFILVVEKDS | -1.12
HMRMTRQRKVILEELGKVYTHPTADEIYTMVKEKLPNISLGTVYRNLDLLAENNQVLKLETAGNIRRYD | -0.0847
HMKLINEDLNNEIVFEENKVNLLVIENKKKFVQFIQEIIKQINGDEGKFSLFDINTELKIHDKIDII | 0.185
HMQLSQLLQPFDINAFKGHPLYTEENVKMFNDYTNRVKEWTKGTPYEQYWVTKEGQPTMLAWDSFKK | -0.972
HMTTQIPEEVQKRVNQFYEALDEEDYGEAKQILEELEKATAPDHPTLIQMRTRYEFDTMELR | 0.186
HMQTTITITNTVTGQKAQFPPPFNPMSLSKIGVDETFEKEVFVDGVDTFGYGLDGYLTFYELKDFLRSYQ | -2.5
HMQGWREWDYSADLYINARVGGKIEPTENSPISRVYELDEPVSVVAFTSTRYFKLSSGDYIFAEYLSAQKV | -1.2
HMEGRTVMATTAVNVRSGPGTSYKILGVLYPGHTAQQIGNTRYGWAQVTWKGHTAYIAARYLRDS | -2.41
HMNASVIADLFRQTGASVMIHGHTHRPDIHALEANGDAAFRAVLGAWHTEGSMIRVTQDDVTLIAFP | 0.0376
HMSQLYINATDDGWVIGNLPADAREVLLTTLGGQVVARYHVTAPSLRVKAPRKGVYIVSVETA | -1.12
HMGETISVPAVRSLAYDRAVDMLTAEGLKGIVADSVYDNRTQPGTVIEQNPKAGTIVKEGREVYLTINA | 0.157
HMFDPTDLPEKQLMVYEIIKSNNGINMTNIASLLGFNKTTVDNAIRALKKKEIVVFKGTNRSGGYFNT | -1.66
HMQNFLSITSKEKIDIGNFQLISFKFENNLYDYVISGNKSELLIFQEKTIENNNENIEKITSNF | -2.06
HMSDIIVQGNRRLDTDLIITDSQIREIGTDEKSLSLAVKNLYKTGYFENVQIFKDNSVVFINVKENQ | -0.103
HMTETTTVPKLKGLTKDEAEDAAKSSKIKLEFIDEISKTVEAGVIIKQEKDEGETVNAGDTVKVYVSIGT | 0.218
HMDTVSYSTLLRDIDAKEIKQLDLVPGRREVRVQYNDGRRVTVPVFANDNQILRAAESSGTPLTVV | 0.183
HMNADLDIQNVNGNTPLWEAVMRYRGDGFFIEQLLKNGANPDIKNNYGVSPKSLARTIANYDVRRFFN | -0.137
HMKGQNRSEITAGARVKVVQKQDQRTGALTEGIVRDILTRSPHHPHGIKVRLESGIVGRVKDVL | 0.0363
HMYNTDAMGVRIGELRRAKGLTQEAFAKTLGISAQAVSKWETGLGFPDISLLPMIAETLGTKIETLFGAE | -0.0826

Sequence | soluble fraction (log2)
HMQNNITISKEIELRTGPDDTYPTLKKVTAGDNVEMLSKSDTWYEIKTNDSFVGWVPGWSIL | 0.0818
HMKSISMSKLRHLLQLYVQGRSKKLISEQTGIARNTLKKYIKEFSEAGLSLEALLALSDKELEDLFVK | -1.01
HMGIVVDGTMTLEGVAERYGMSVGELARVIGVPPEYSNERLGRLRKSYEFEMDDIRIYIIQKQ | -1.31
HMVIANADVRAKFSKGKDSFVKYYFKEKVLKDGFTEEVKNNIVQALFYLQIVTRIDGESGVLIIDY | -0.0492
HMKETERKILQAVLGLPLKYRDVIHLFYYEEMSVKEIAEVLHRQESTVTSQLTRARGILKKNL | 0.09
HMEVNLEPLIALLRKHRDLDLSGYSKSTLGRRITYFMGLNKISSIDELGRRLAEDDLLFQEFLDKLT | -0.0655
HMLDTELEANLRSQRDQKLVEELDPIVTNPLRWAELTSDKQTEWTQYRTDLLNVPQQSGFPTNVTWPEKP | 0.212
HMVSAMLLHKKEILNLLAEEPEALHFASLLRAFGGRHIKNELKQIVDDLVRSGEILRLRGNRYTLPGADN | -1.21
HMREEQELFRKLLEVNGIGPKVAAGMLAGGRPEDVVSAIRREDVAWLTKLPGIGRKTAQRIVLDLKDKLD | -0.0754
HMNIGVEQIEQMERGALITLWQELIDKPLPRHMSIVFLRQVLAFEVQSKQNGGLPRGFITLLNKQAD | -0.824
HMGSGVNVTVNGKRMNLPLKDDHIIFVDIFNYIDFDLSKPKGSIVLKLNGRDAGYTDPIKDGDVIDIYWQ | 0.33
HMAVVAPLAGSVARVLVADGDEIEAGQVLLVLEAMKMETEITAPKAGKVGAILVGKGDSVQGGQGLR | -0.051
HMKKATYDVMVREALVSFKKKGATLQSIKKKIKADYAIEANATAVKSAIQKGMEAGSIRKSYDLYFFMD | -2.12
HMFTKYSPDFKLSVILDMRKNNLGYGEVVRKYWNLDSYKESDRHRSQVRLWERIFLEEGVEGFM | -4.64
HMFDITKEVLKQSGLYNLYKNDESLEGINRIQNIEELLNGIKDFVENNEKSQASVSSFLQDVALATDQ | 0.126
HMVRSEDLIGLQGRITLATDVETRGFVELSVKGSLLRRPALSLKGPLAKNTAVVVTASNDHTLEVEAL | -0.573
HMQQYLDAYDKALAFGIAMNKLPSYENLTLDDKEDVDKLKEIYDGMSNYEKTFVAKDFTDKLDRYVKRIE | -0.0367
HMLNSISIKTNKKIDFLEKNEHLVNFVYEKETMEHIYNLSYENKKDLQELQNKLSDIEGIIKINTDL | 0.133
HMSDEVNTDKAFRAIDSTLNRNVKGIAPRDHTLLRNTMITYFKSNDYIDYDTMIQSTLENYKPTELEQDKM | 0.165
HMRATLTDETARVVQEPTSESISLTSLRKGEEFEIGKVIRKKKEVWVTVTTSSGVKGYISGDTHIF | -0.0573
HMRRSLIGPTVRERRRALGITQSRLAAEVGISASYLNLIEGDKRNIGGALLQRIAGALGLALD | -2.74
HMNEDFSEIIAAVKKFAVDNLSLSTLSDEELEEQIKTITDNMIGNRYVSIKNRVDIAQQVFSSIR | -0.0581
HMLGKNEAKEYKVAYGDIGKMPALIMGLVPLPKPPVVDERLRTLYVTATPEQHREIEAIMNRI | 0.156
HMGSYVVQLGAFAIRANAEKLAREVDGSIATSGRFSLVRVGPFTSRGQAEQALAKLRARGYSDALIHSL | -0.224

Reference: the domain aggregation screens of Martell et al. (2025)
